Paper PMC11390681

Tested on: F4 (K88) fimbriae on intact ETEC strain SP11 cells (Escherichia coli (ETEC-F4+, strain SP11))
Assay: whole-cell binding with qPCR quantification of eluted aptamer
Details: 138 mM NaCl, 20 mM Tris-HCl pH 7.4, 2.7 mM KCl, 1 mM CaCl2, 0.5 mM MgCl2, 0.1 mg/mL salmon sperm DNA, 30 min at 37 C, 500 rpm, washes with 0.05% Tween 20

| Sequence | Kd (intact SP11 cells, about 10^8 CFU/mL, 1 mM CaCl2, 0.5 mM MgCl2) [nM] | Kd [nM] |
| --- | --- | --- |
| CGTACGGTCGACGCTAGCACACTCTTTTGCTCGTGTTTTTGCCTGTTACATAAAATGAATCAGTGGATGTTTCCTTCTCACGTGGAGCTCGGATCC [Apt31] | 81.8 | – |
| CGTACGGTCGACGCTAGCGGAGACCGTACCATCTGTTCGTGGAAGCGCTTTGCTCGTCCATTAGCCTTGTGCTCGTGCCACGTGGAGCTCGGATCC [Apt37] | – | 50.8 |
